Measurements reported in patent US20220106400A1.

Assays:
[1] = biological target: human GITR on activated human CD4 T cells (human) (UniProt Q9Y5U5); experiment: FACS binding to anti-CD3/CD28-activated human CD4 T cells
[2] = biological target: hCD64 (FcgRI) (human) (UniProt P12314); experiment: FcR binding, Example 16
[3] = biological target: hCD64 (FcgRI) (human) (UniProt P12314); experiment: told in the description as a result of the Examples; method not given

Chain of human GITR on activated human CD4 T cells (human) (Q9Y5U5 26-241): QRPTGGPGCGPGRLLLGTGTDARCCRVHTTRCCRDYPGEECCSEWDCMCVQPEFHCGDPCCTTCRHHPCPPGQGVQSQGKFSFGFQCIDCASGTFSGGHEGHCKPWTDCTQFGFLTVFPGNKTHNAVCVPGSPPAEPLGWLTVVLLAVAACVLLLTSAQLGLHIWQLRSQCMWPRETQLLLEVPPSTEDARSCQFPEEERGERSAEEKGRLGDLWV
Chain of hCD64 (FcgRI) (human) (P12314 16-288 limits assumed): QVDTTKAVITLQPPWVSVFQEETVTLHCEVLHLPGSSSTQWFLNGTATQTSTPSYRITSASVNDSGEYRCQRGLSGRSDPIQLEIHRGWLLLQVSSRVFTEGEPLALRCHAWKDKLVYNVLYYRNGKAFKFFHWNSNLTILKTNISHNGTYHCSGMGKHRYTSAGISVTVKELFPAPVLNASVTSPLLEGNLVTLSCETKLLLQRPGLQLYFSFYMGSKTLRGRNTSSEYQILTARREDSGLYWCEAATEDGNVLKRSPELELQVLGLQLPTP

unrelated hIgG2
EC50 [1]: 6.72 nM

antibody with IgG1f-L235E-P238K heavy chain constant domain (Example 16)
fold reduction of CD64 binding against P238K alone [2]: 1000 fold

antibody with IgG1 P238K (Example 13)
fold reduction of binding relative to wildtype IgG1 [3]: 100 fold

unrelated hIgG1
EC50 [1]: 132 nM
